Data taken from US20090130070A1, “METHOD OF TREATMENT” (The University of Queensland, priority 2004, published 2009).

Assay: Penetration of Oregon green labeled fetuin A into wounds in the porcine burn model
Assay type: in vivo, pigs
Details: 4 hours post treatment
Experimental: The potential use of the protein as a topical application was explored by labeling the protein with FluoroReporter Oregon Green® 488 Protein (Molecular Probes) then applying it as 1) a hydrophobic cream 2) a hydrophilic cream and an aqueous solution. These were applied to a porcine burn model and skin samples were collected 4 hours after application. Penetration of the protein into the wound was observed by epifluorescent microscopy.
Lyophilised bovine Fetuin A (Sigma) was dissolved in purified water at a concentration of 10 mg/mL. Aliquots of 200 μl were labelled using a FluoroReporter Oregon Green® 488 Protein Labelling Kit (Molecular Probes) after the manufacturer's instructions. The resulting solution was dried down using a Labconco Centrivap concentrator and weighed. Sufficient carriers (paraffin cream (Orion, Australia), aqueous cream (Orion, Australia) or purified water) were added to produce a final concentration of 2 mg/ml of solution or 2 mg/g fetuin cream. Sufficient unlabelled fetuin A was added to the solution and cream to bring the total fetuin A concentration up to 40 mg/ml or gram.
All animal experiments were approved by the University of Queensland animal ethics committee. Six 20 kg pigs (approximately 9 weeks post partum) were scalded under general anaesthesia. Water (400 mls) was placed in a 500 ml Schott bottle whose base had been removed with a diamond saw and replaced by cling wrap held in place by autoclave tape. The water was heated in a microwave oven to 92° C. (temperature was measured with a Dick Smith Q1437 digital thermometer) then the bottle was placed on the clipped side of the animal for 15 seconds. A single 8.5 cm diameter wound was placed on each side of the animal. Each animal received a different treatment these being:
1. Treatment of intact skin with an aqueous solution of 2 mls of Oregon green labeled bovine fetuin (40 mg/ml in sterile phosphate buffered saline pH 7.4).
2. Treatment of intact skin with an aqueous gel of 2 g of Oregon green labeled bovine fetuin (40 mg/g in Solosite™ wound gel).
3. […]

Fetuin: bovine fetuin A (Sigma); glycoprotein also called alpha2-Heremans-Schmid-glycoprotein (AHSG)
penetration into the wound bed (debrided wound, aqueous solution): significant penetration into the wound bed
penetration into the wound bed (debrided wound, water based gel): significant penetration into the wound bed
penetration into the wound bed (direct injection into the wound): significant penetration into the wound bed
